The values that follow are results of earlier work, collected in paper PMC6158072.

As a reminder, the pKa is the pH at which an ionisable group is half protonated.

Data set [1] deals with Lys.
Data set [2] deals with Cys. Particulars: not stated (presumably the reduced thiol form).

Regarding “Acetoacetate decarboxylase (not stated (Clostridium acetobutylicum inferred))”, the pKa entry in data set [1] is “around 6”.

With Peroxiredoxin 5 (Prx5) (Homo sapiens), in data set [2], the pKa is reported as 5.5.
